Data: patent US20250376529A1 (Amgen, published 2025)
Residue numbers refer to the chain shown, from its start.

T1: Rhesus GIPR (rhesus, UniProt F7E1R9 22-466)
T1 sequence: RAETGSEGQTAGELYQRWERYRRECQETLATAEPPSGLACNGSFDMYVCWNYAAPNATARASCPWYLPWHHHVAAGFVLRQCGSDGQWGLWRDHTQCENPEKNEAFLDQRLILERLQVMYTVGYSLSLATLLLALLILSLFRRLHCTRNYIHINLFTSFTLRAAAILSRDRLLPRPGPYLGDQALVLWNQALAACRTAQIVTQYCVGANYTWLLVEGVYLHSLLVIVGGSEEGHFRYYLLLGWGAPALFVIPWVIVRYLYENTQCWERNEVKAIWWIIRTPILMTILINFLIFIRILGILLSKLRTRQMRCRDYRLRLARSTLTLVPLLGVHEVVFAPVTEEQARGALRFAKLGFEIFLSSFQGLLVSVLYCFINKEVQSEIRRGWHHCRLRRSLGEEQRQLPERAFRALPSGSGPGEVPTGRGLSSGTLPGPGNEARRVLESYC

B1: 5G12.006.001 (antibody, human IgG1, kappa, N297G)
heavy: not shown
light: DIQLTQSPSSLSASVGDRVTITCRASQTISRFLNWYQQKPGKAPELLIYVASSLQSGVPSRFSGSGSGTDFTLTISSLQPEDFATYYCQQSYSTLISFGQGTKLEIKRTVAAPSVFIFPPSDEQLKSGTASVVCLLNNFYPREAKVQWKVDNALQSGNSQESVTEQDSKDSTYSLSSTLTLSKADYEKHKVYACEVTHQGLSSPVTKSFNRGEC
B2: 5G12.006 (antibody, human IgG1, kappa, N297G, V domains shown)
VH: QVQLVESGGGVVQPGRSLRLSCTASGFTFSSYGIHWVRQAPGKGLEWVAVIWYDGSNKFHADSVKGRFTISRDNSKNTLYLQMNSLRAEDSAMYFCARGKVAGMPEAFEIWGQGTKVTVSS
VL: DIQLTQSPSSLSASVGDRVTITCRASQTISRFLNWYQQKPGKAPELLIYVASSLQSGVPSRFSGSGSGTDFTLTISSLQPEDFATYYCQQSYSTLISFGQGTKLEITR
B3: 5G12.006.002 (antibody, human IgG1, kappa, N297G, V domains shown)
VH: not shown
VL: B2 VL with T107K
B4: 5G12.005.001 (antibody, human IgG1, kappa, N297G, V domains shown)
VH: not shown
VL: B2 VL with E45K, I96L, T107K
B5: 5G12.006.006 (antibody, human IgG1, kappa, N297G, V domains shown)
VH: not shown
VL: B2 VL with T107K
B6: 5G12.006.005 (antibody, human IgG1, kappa, N297G, V domains shown)
VH: B2 VH with T23A, G55A
VL: B2 VL with T107K
B7: 2G10_LC1.003 (antibody, human IgG1, kappa, N297G, V domains shown)
VH: not shown
VL: EIVMTQSPATLSVSPGERATLSCRASQSVSSNLAWYQQKPGQAPRLLIYGAATRATGIPARFSGSGSGTEFTLTISSLQSEDFAVYYCQQYNNWPLTFGGGTKVEIKR
B8: 2G10_LC1.005 (antibody, human IgG1, kappa, N297G, V domains shown)
VH: not shown
VL: B7 VL
B9: 2G10_LC1.009 (antibody, human IgG1, kappa, N297G, V domains shown)
VH: not shown
VL: B7 VL with Q79E, S80P
B10: 2G10_LC1 (antibody, human IgG1, kappa, N297G, V domains shown)
VH: QVQLVESGGGVVQPGRSLRLSCAASGFTFSNYGMHWVRQAPGEGLEWVAAIWFDGSDKYYADSVKGRFTISRDNSKNTLYLQMNSLRAEDTAVYYCARDQAIFGVVPDYWGQGTLVTVSS
VL: B7 VL with F62V
B11: 2G10_LC1.007 (antibody, human IgG1, kappa, N297G, V domains shown)
VH: not shown
VL: B7 VL with Q79E, S80P, W94F
B12: 2G10_LC1.010 (antibody, human IgG1, kappa, N297G, V domains shown)
VH: not shown
VL: B7 VL with Q79E, S80P
B13: 2G10_LC1.004 (antibody, human IgG1, kappa, N297G, V domains shown)
VH: B10 VH with G55A
VL: B7 VL
B14: 2G10_LC1.008 (antibody, human IgG1, kappa, N297G, V domains shown)
VH: not shown
VL: B7 VL with Q79E, S80P, W94Y
B15: 6H1.004 (antibody, human IgG1, kappa, N297G, V domains shown)
VH: not shown
VL: DIQMTQSPSSLSASIGDRVTITCRASQDIRDYLGWYQQKPGKAPKLLIYGASSLQSGVPSRFSGSGSGTEFTLTISSLQPEDFATYYCLQHNNYPFTFGQGTKVDIKR
notes: also called iPS:359873; iPS:359875
B16: 4H9.004.005 (antibody, human IgG1, kappa, N297G, V domains shown)
VH: not shown
VL: B15 VL with I15V, D28G, D31N, Y32E, L46R, A84V, N93S, I106V
B17: 4H9.004.006 (antibody, human IgG1, kappa, N297G, V domains shown)
VH: not shown
VL: B15 VL with I15V, D28G, D31N, Y32E, A84V, N93S, I106V
B18: 18F2.004 (antibody, human IgG1, kappa, N297G, V domains shown)
VH: not shown
VL: B15 VL with I29L, D31N, Q37H, Q100P
B19: 6H1.005 (antibody, human IgG1, kappa, N297G, V domains shown)
VH: not shown
VL: B15 VL
B20: 18F2.003 (antibody, human IgG1, kappa, N297G, V domains shown)
VH: QVQLVESGGGVVQPGRSLRLSCAASGFTFSNFGMHWVRQAPGKGLEWVAVIWYDASNENYADAVKGRFTISRDNSKNTLYLHMNSLRAADTAVYYCARDGTIFGVVLGDYWGQGTLVTVSS
VL: B15 VL with I29L, D31N, Q100P
B21: 18F2.006 (antibody, human IgG1, kappa, N297G, V domains shown)
VH: B20 VH
VL: B15 VL with I29L, D31N, L46R, Q100P
B22: 18F2.002 (antibody, human IgG1, kappa, N297G, V domains shown)
VH: not shown
VL: B15 VL with I29L, D31N, Q100P
B23: 18F2.009 (antibody, human IgG1, kappa, N297G, V domains shown)
VH: not shown
VL: B15 VL with I29L, D31N, Q100P
B24: 6H1.008 (antibody, human IgG1, kappa, N297G, V domains shown)
VH: not shown
VL: B15 VL with Q100P
B25: 6H1.009 (antibody, human IgG1, kappa, N297G)
heavy: not shown
light: DIQMTQSPSSLSASIGDRVTITCRASQDIRDYLGWYQQKPGKAPKRLIYGASSLQSGVPSRFSGSGSGTEFTLTISSLQPEDFATYYCLQHNNYPFTFGQGTKVDIKRTVAAPSVFIFPPSDEQLKSGTASVVCLLNNFYPREAKVQWKVDNALQSGNSQESVTEQDSKDSTYSLSSTLTLSKADYEKHKVYACEVTHQGLSSPVTKSFNRGEC
B26: 18F2.005 (antibody, human IgG1, kappa, N297G, V domains shown)
VH: not shown
VL: B15 VL with I29L, D31N, L46R, Q100P
B27: 18F2.007 (antibody, human IgG1, kappa, N297G, V domains shown)
VH: B20 VH
VL: B15 VL with I29L, D31N, Q37H, Q100P
B28: 18F2 (antibody, human IgG1, kappa, N297G, V domains shown)
VH: B20 VH with A55G, A63S
VL: B15 VL with I29L, D31N, Q37H, L46R, Q100P
B29: 18F2.008 (antibody, human IgG1, kappa, N297G, V domains shown)
VH: not shown
VL: B15 VL with I29L, D31N, Q37H, L46R, Q100P
B30: 6H1.007 (antibody, human IgG1, kappa, N297G, V domains shown)
VH: B20 VH with N31Y, E58K, N59Y, A63S, H82Q, A89E, V106L
VL: B15 VL with Q100P
B31: 18F2.010 (antibody, human IgG1, kappa, N297G, V domains shown)
VH: B20 VH with A63S, H82Q
VL: B15 VL with I29L, D31N, Q100P
B32: 6H1.006 (antibody, human IgG1, kappa, N297G, V domains shown)
VH: B20 VH with N31Y, A55G, E58K, N59Y, A63S, H82Q, A89E, V106L
VL: B15 VL with Q100P
B33: 6A5.004.007 (antibody, human IgG1, kappa, N297G, V domains shown)
VH: QVQLVESGGGVVQPGRSLRLSCAASGFSFSSYGMHWVRQPPGKGLEWVAAIWYDANNKYYADAVKGRFTISRDSSKNTLYLQMNSLRAEDTAVYYCARDRTIFGVVLEYWGQGTLVTVSS
VL: not shown
B34: 6A5.004.008 (antibody, human IgG1, kappa, N297G, V domains shown)
VH: B33 VH with A55G
VL: DIQMTQSPSSLSASVGDRVTITCQASQDITNYLNWYQQKPGKAPKLLIYDASNLEPGVPSRFSGSGSGTDFTLTISSLQPEDFATYYCQQYDDLFTFGPGTKVDIKR

target: T1, Rhesus GIPR; test: cell-based or functional assay

| Binder | Rhesus GIPR CAMP Assay (Conc. mAb @ 60% Inhibition in nM) [nM] |
| --- | --- |
| B1 | 0.9 |
| B2 | 0.8 |
| B3 | 1 |
| B4 | 10.9 |
| B5 | 0.9 |
| B6 | 5.3 |
| B7 | 0.85 |
| B8 | 0.43 |
| B9 | 0.71 |
| B10 | 0.67 |
| B11 | 16.3 |
| B12 | 0.86 |
| B13 | 0.58 |
| B14 | 4 |
| B15 | 0.79 |
| B16 | 0.65 |
| B17 | 0.35 |

| Binder | Rhesus GIPR CAMP Assay (Conc. mAb @ 60% Inhibition in nM) [nM] |
| --- | --- |
| B18 | 2.72 |
| B19 | 0.49 |
| B20 | 2.01 |
| B21 | 0.52 |
| B22 | 2.23 |
| B23 | 1.28 |
| B24 | 0.44 |
| B25 | 0.15 |
| B26 | 1.13 |
| B27 | 1.94 |
| B28 | 0.8 |
| B29 | 1.76 |
| B30 | 0.55 |
| B31 | 1.75 |
| B32 | 0.47 |
| B33 | 0.61 |
| B34 | 0.82 |
